Reference: patent US20210032299A1 (Eli Lilly, published 2021)
Starred links: 1 amine or outer side, 2 acyl side, 3 side chain; linkers in the order of their positions; H or OH if unused. Non-standard residues stand in square brackets, D forms with d. Groups on a side chain read outwards from the residue. No end group written: not given here. *: point of attachment. C20 diacid = O=C(O)CCCCCCCCCCCCCCCCCCC(=O)*; C18 diacid = O=C(O)CCCCCCCCCCCCCCCCC(=O)*; αMePhe(2-F) = C[C@](N)(Cc1ccccc1F)C(=O)O; γGlu = O=C(O)[C@H](CCC(=O)[*:2])N[*:1]; αMeF = C[C@](N)(Cc1ccccc1)C(=O)O; 4Pal = N[C@@H](Cc1ccncc1)C(=O)O; AEEA = NCCOCCOCC(=O)O; Aib = CC(C)(N)C(=O)O

Tests used:
[1] = target: T1, human glucose-dependent insulinotropic polypeptide (GIP) receptor (human, UniProt P48546 22-466); assay: SPA, displacement of [125I]-GIP from hGIPR membranes, 0.1% bacitracin
T1 construct: whole, on cells; Assayed as crude membranes of stably transfected CHO cells; also called hGIPR; human GIP receptor
T1 sequence (looked up): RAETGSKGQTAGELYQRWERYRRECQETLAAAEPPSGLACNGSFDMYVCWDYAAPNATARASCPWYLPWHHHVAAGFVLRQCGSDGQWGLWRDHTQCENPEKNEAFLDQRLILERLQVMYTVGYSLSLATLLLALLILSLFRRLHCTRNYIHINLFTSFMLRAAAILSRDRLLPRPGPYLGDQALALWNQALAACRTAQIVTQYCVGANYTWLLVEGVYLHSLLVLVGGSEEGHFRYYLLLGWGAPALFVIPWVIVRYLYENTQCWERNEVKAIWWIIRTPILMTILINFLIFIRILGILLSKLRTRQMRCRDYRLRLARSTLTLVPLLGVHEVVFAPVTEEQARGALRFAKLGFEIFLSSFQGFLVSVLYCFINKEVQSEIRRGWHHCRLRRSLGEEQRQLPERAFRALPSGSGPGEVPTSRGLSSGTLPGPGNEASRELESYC

human glucagon receptor = target: T2, human glucagon receptor (human, UniProt P47871 26-477); assay: SPA, displacement of [125I]-Gcg from hGcgR membranes, 0.1% bacitracin
T2 construct: whole, on cells; Assayed as crude membranes of stably transfected HEK293 cells; also called hGcgR; GcgR
How it was run: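 Binding buffer: 25 mM HEPES pH 7.4, 2.5 mM CaCl₂, 1 mM MgCl₂, 0.003% Tween-20, protease inhibitors without EDTA. Counted by scintillation after 12 h incubation/settling at room temperature. Four-parameter nonlinear fit; Kᵢ given as geometric mean ± SEM of independent replicates run on different days.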

human GLP-1 receptor = target: T3, human GLP-1 receptor (human, UniProt P43220 24-463); assay: SPA, displacement of [125I]-GLP-1 from hGLP-1R membranes, 0.1% bacitracin
T3 construct: whole, on cells; Assayed as crude membranes of stably transfected HEK293 cells; also called hGLP1R; hGLP-1R
How it was run: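 Binding buffer: 25 mM HEPES pH 7.4, 2.5 mM CaCl₂, 1 mM MgCl₂, 0.1% bacitracin, 0.003% Tween-20, protease inhibitors without EDTA. Four-parameter nonlinear regression; Kᵢ given as geometric mean ± SEM, n = independent replicates run on different days.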

T2 sequence (P47871 26-477): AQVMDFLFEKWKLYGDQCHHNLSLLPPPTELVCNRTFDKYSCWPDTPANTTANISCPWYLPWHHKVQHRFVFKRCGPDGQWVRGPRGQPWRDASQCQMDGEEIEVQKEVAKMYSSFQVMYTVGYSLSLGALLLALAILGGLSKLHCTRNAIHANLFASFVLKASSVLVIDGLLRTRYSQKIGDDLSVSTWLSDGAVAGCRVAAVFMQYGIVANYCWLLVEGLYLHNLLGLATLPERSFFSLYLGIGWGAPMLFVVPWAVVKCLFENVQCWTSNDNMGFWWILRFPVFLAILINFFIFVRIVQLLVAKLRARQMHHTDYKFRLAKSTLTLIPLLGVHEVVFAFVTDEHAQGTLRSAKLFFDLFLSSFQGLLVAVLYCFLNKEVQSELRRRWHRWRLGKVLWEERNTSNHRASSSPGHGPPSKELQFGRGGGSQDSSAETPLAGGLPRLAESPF

Binder | Ki [1] | Ki (human glucagon receptor) | Ki (human GLP-1 receptor)
Y[Aib]EGT[αMeF]ISDYSIALDKK([AEEA-AEEA-γGlu-C20 diacid])HQ[Aib]DFVE[4Pal]LLEGGPSSGAPPPS-NH2 (N-terminus assumed; SMILES CC[C@H](C)[C@H](NC(=O)[C@H](CO)NC(=O)[C@H](Cc1ccc(O)cc1)NC(=O)[C@H](CC(=O)O)NC(=O)[C@H](CO)NC(=O)[C@@H](NC(=O)[C@](C)(Cc1ccccc1)NC(=O)[C@@H](NC(=O)CNC(=O)[C@H](CCC(=O)O)NC(=O)C(C)(C)NC(=O)[C@@H](N)Cc1ccc(O)cc1)[C@@H](C)O)[C@@H](C)CC)C(=O)N[C@@H](C)C(=O)N[C@@H](CC(C)C)C(=O)N[C@@H](CC(=O)O)C(=O)N[C@@H](CCCCN)C(=O)N[C@@H](CCCCNC(=O)COCCOCCNC(=O)COCCOCCNC(=O)CC[C@H](NC(=O)CCCCCCCCCCCCCCCCCCC(=O)O)C(=O)O)C(=O)N[C@@H](Cc1c[nH]cn1)C(=O)N[C@@H](CCC(N)=O)C(=O)NC(C)(C)C(=O)N[C@@H](CC(=O)O)C(=O)N[C@@H](Cc1ccccc1)C(=O)N[C@H](C(=O)N[C@@H](CCC(=O)O)C(=O)N[C@@H](Cc1ccncc1)C(=O)N[C@@H](CC(C)C)C(=O)N[C@@H](CC(C)C)C(=O)N[C@@H](CCC(=O)O)C(=O)NCC(=O)NCC(=O)N1CCC[C@H]1C(=O)N[C@@H](CO)C(=O)N[C@@H](CO)C(=O)NCC(=O)N[C@@H](C)C(=O)N1CCC[C@H]1C(=O)N1CCC[C@H]1C(=O)N1CCC[C@H]1C(=O)N[C@@H](CO)C(N)=O)C(C)C) [Example 44] | 0.059 nM | 50 nM | 209 nM
Ac-[dY]AEGT[αMePhe(2-F)]ISDYSIALDKK([AEEA-AEEA-γGlu-C18 diacid])HQ[Aib]EFVNYLLAGGPSSGAPPPS-NH2 (SMILES CC[C@H](C)[C@H](NC(=O)[C@H](CO)NC(=O)[C@H](Cc1ccc(O)cc1)NC(=O)[C@H](CC(=O)O)NC(=O)[C@H](CO)NC(=O)[C@@H](NC(=O)[C@](C)(Cc1ccccc1F)NC(=O)[C@@H](NC(=O)CNC(=O)[C@H](CCC(=O)O)NC(=O)[C@H](C)NC(=O)[C@@H](Cc1ccc(O)cc1)NC(C)=O)[C@@H](C)O)[C@@H](C)CC)C(=O)N[C@@H](C)C(=O)N[C@@H](CC(C)C)C(=O)N[C@@H](CC(=O)O)C(=O)N[C@@H](CCCCN)C(=O)N[C@@H](CCCCNC(=O)COCCOCCNC(=O)COCCOCCNC(=O)CC[C@H](NC(=O)CCCCCCCCCCCCCCCCC(=O)O)C(=O)O)C(=O)N[C@@H](Cc1c[nH]cn1)C(=O)N[C@@H](CCC(N)=O)C(=O)NC(C)(C)C(=O)N[C@@H](CCC(=O)O)C(=O)N[C@@H](Cc1ccccc1)C(=O)N[C@H](C(=O)N[C@@H](CC(N)=O)C(=O)N[C@@H](Cc1ccc(O)cc1)C(=O)N[C@@H](CC(C)C)C(=O)N[C@@H](CC(C)C)C(=O)N[C@@H](C)C(=O)NCC(=O)NCC(=O)N1CCC[C@H]1C(=O)N[C@@H](CO)C(=O)N[C@@H](CO)C(=O)NCC(=O)N[C@@H](C)C(=O)N1CCC[C@H]1C(=O)N1CCC[C@H]1C(=O)N1CCC[C@H]1C(=O)N[C@@H](CO)C(N)=O)C(C)C) [Example 30] | 0.037 nM | 407 nM | 26.5 nM
Ac-[dY]AEGT[αMePhe(2-F)]ISDYSIALDKK([AEEA-AEEA-γGlu-C20 diacid])HQ[Aib]EFVNYLLEGGPSSGAPPPS-NH2 (SMILES CC[C@H](C)[C@H](NC(=O)[C@H](CO)NC(=O)[C@H](Cc1ccc(O)cc1)NC(=O)[C@H](CC(=O)O)NC(=O)[C@H](CO)NC(=O)[C@@H](NC(=O)[C@](C)(Cc1ccccc1F)NC(=O)[C@@H](NC(=O)CNC(=O)[C@H](CCC(=O)O)NC(=O)[C@H](C)NC(=O)[C@@H](Cc1ccc(O)cc1)NC(C)=O)[C@@H](C)O)[C@@H](C)CC)C(=O)N[C@@H](C)C(=O)N[C@@H](CC(C)C)C(=O)N[C@@H](CC(=O)O)C(=O)N[C@@H](CCCCN)C(=O)N[C@@H](CCCCNC(=O)COCCOCCNC(=O)COCCOCCNC(=O)CC[C@H](NC(=O)CCCCCCCCCCCCCCCCCCC(=O)O)C(=O)O)C(=O)N[C@@H](Cc1c[nH]cn1)C(=O)N[C@@H](CCC(N)=O)C(=O)NC(C)(C)C(=O)N[C@@H](CCC(=O)O)C(=O)N[C@@H](Cc1ccccc1)C(=O)N[C@H](C(=O)N[C@@H](CC(N)=O)C(=O)N[C@@H](Cc1ccc(O)cc1)C(=O)N[C@@H](CC(C)C)C(=O)N[C@@H](CC(C)C)C(=O)N[C@@H](CCC(=O)O)C(=O)NCC(=O)NCC(=O)N1CCC[C@H]1C(=O)N[C@@H](CO)C(=O)N[C@@H](CO)C(=O)NCC(=O)N[C@@H](C)C(=O)N1CCC[C@H]1C(=O)N1CCC[C@H]1C(=O)N1CCC[C@H]1C(=O)N[C@@H](CO)C(N)=O)C(C)C) [Example 33] | 0.0369 nM | 63.5 nM | 31.2 nM
Y[Aib]EGT[αMePhe(2-F)]ISDYSIALDKK([AEEA-AEEA-γGlu-C20 diacid])HQ[Aib]DFVEYLLEGGPSSGAPPPS-NH2 (N-terminus assumed; SMILES CC[C@H](C)[C@H](NC(=O)[C@H](CO)NC(=O)[C@H](Cc1ccc(O)cc1)NC(=O)[C@H](CC(=O)O)NC(=O)[C@H](CO)NC(=O)[C@@H](NC(=O)[C@](C)(Cc1ccccc1F)NC(=O)[C@@H](NC(=O)CNC(=O)[C@H](CCC(=O)O)NC(=O)C(C)(C)NC(=O)[C@@H](N)Cc1ccc(O)cc1)[C@@H](C)O)[C@@H](C)CC)C(=O)N[C@@H](C)C(=O)N[C@@H](CC(C)C)C(=O)N[C@@H](CC(=O)O)C(=O)N[C@@H](CCCCN)C(=O)N[C@@H](CCCCNC(=O)COCCOCCNC(=O)COCCOCCNC(=O)CC[C@H](NC(=O)CCCCCCCCCCCCCCCCCCC(=O)O)C(=O)O)C(=O)N[C@@H](Cc1c[nH]cn1)C(=O)N[C@@H](CCC(N)=O)C(=O)NC(C)(C)C(=O)N[C@@H](CC(=O)O)C(=O)N[C@@H](Cc1ccccc1)C(=O)N[C@H](C(=O)N[C@@H](CCC(=O)O)C(=O)N[C@@H](Cc1ccc(O)cc1)C(=O)N[C@@H](CC(C)C)C(=O)N[C@@H](CC(C)C)C(=O)N[C@@H](CCC(=O)O)C(=O)NCC(=O)NCC(=O)N1CCC[C@H]1C(=O)N[C@@H](CO)C(=O)N[C@@H](CO)C(=O)NCC(=O)N[C@@H](C)C(=O)N1CCC[C@H]1C(=O)N1CCC[C@H]1C(=O)N1CCC[C@H]1C(=O)N[C@@H](CO)C(N)=O)C(C)C) [Example 37] | 0.026 nM | 51.4 nM | 83.9 nM
Y[Aib]EGT[αMePhe(2-F)]ISDYSIALDKK([AEEA-AEEA-γGlu-C20 diacid])HQ[Aib]DFVEWLLETGPSSGAPPPS-NH2 (N-terminus assumed; SMILES CC[C@H](C)[C@H](NC(=O)[C@H](CO)NC(=O)[C@H](Cc1ccc(O)cc1)NC(=O)[C@H](CC(=O)O)NC(=O)[C@H](CO)NC(=O)[C@@H](NC(=O)[C@](C)(Cc1ccccc1F)NC(=O)[C@@H](NC(=O)CNC(=O)[C@H](CCC(=O)O)NC(=O)C(C)(C)NC(=O)[C@@H](N)Cc1ccc(O)cc1)[C@@H](C)O)[C@@H](C)CC)C(=O)N[C@@H](C)C(=O)N[C@@H](CC(C)C)C(=O)N[C@@H](CC(=O)O)C(=O)N[C@@H](CCCCN)C(=O)N[C@@H](CCCCNC(=O)COCCOCCNC(=O)COCCOCCNC(=O)CC[C@H](NC(=O)CCCCCCCCCCCCCCCCCCC(=O)O)C(=O)O)C(=O)N[C@@H](Cc1c[nH]cn1)C(=O)N[C@@H](CCC(N)=O)C(=O)NC(C)(C)C(=O)N[C@@H](CC(=O)O)C(=O)N[C@@H](Cc1ccccc1)C(=O)N[C@H](C(=O)N[C@@H](CCC(=O)O)C(=O)N[C@@H](Cc1c[nH]c2ccccc12)C(=O)N[C@@H](CC(C)C)C(=O)N[C@@H](CC(C)C)C(=O)N[C@@H](CCC(=O)O)C(=O)N[C@H](C(=O)NCC(=O)N1CCC[C@H]1C(=O)N[C@@H](CO)C(=O)N[C@@H](CO)C(=O)NCC(=O)N[C@@H](C)C(=O)N1CCC[C@H]1C(=O)N1CCC[C@H]1C(=O)N1CCC[C@H]1C(=O)N[C@@H](CO)C(N)=O)[C@@H](C)O)C(C)C) [Example 40] | 0.0594 nM | 50.9 nM | 302 nM
